According to article PMC11587196 (Cell reports, 2024):
One block for each binder: values may come before it.

What was measured:
Test in all cases: SPR
[1] = biological target: IL-1RAcP domain 3 (Homo sapiens, UniProt Q9NPH3)
[2] = biological target: IL-1 receptor accessory protein (IL-1RAcP) ectodomain (Homo sapiens (Human)., UniProt Q9NPH3, glycosylated (seven putative glycosylation sites))
[3] = biological target: IL-1RAcP domain 1/2 (Homo sapiens, UniProt Q9NPH3)
[4] = biological target: Fc-fused IL-1RAcP R286A (Homo sapiens, UniProt Q9NPH3, R286A)
Chain of Fc-fused IL-1RAcP R286A (Q9NPH3 21-367 R306A): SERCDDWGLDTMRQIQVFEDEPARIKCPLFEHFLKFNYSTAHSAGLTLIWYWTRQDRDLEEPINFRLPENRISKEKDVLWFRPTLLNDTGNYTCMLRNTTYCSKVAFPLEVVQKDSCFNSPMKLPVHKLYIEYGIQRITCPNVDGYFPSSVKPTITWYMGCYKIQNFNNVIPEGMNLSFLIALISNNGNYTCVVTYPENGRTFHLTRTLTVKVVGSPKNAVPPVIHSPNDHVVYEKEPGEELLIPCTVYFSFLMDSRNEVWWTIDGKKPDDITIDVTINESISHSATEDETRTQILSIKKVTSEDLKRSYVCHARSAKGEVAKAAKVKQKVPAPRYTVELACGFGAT

[5] = biological target: Fc-fused IL-1RAcP Y249A (Homo sapiens, UniProt Q9NPH3, Y249A)
Chain of Fc-fused IL-1RAcP Y249A (Q9NPH3 21-367 Y269A): as the sequence (Q9NPH3 21-367 R306A) above, with Y249A, A286R counted along it

[6] = biological target: Fc-fused IL-1RAcP H226A (Homo sapiens, UniProt Q9NPH3, H226A)
Chain of Fc-fused IL-1RAcP H226A (Q9NPH3 21-367 H246A): as the sequence (Q9NPH3 21-367 R306A) above, with H226A, A286R counted along it

[7] = biological target: Fc-fused IL-1RAcP V224A (Homo sapiens, UniProt Q9NPH3, V224A)
Chain of Fc-fused IL-1RAcP V224A (Q9NPH3 21-367 V244A): as the sequence (Q9NPH3 21-367 R306A) above, with V224A, A286R counted along it

Chain of IL-1 receptor accessory protein (IL-1RAcP) ectodomain (Q9NPH3 21-367): as the sequence (Q9NPH3 21-367 R306A) above, with A286R counted along it

Kd [1]: 0.118 nM
Kd [2]: 0.141 nM
koff [2]: 0.000225 s⁻¹
binding result [3]: no binding (tested: 1.25nM to 20nM)
B1: 3G5 monoclonal antibody (hIgG1 with Fc-silent LALA mutations) (antibody, V domains shown)
VH: EVQLVESGGVLVKPGGSLKLSCAASGFTFSDYAMSWVRQTPEKRLEWVATITDGGSYAYYTDDVKGRFTVSRDNARNNLFLQMSHLRSEDTGIYYCSRDRWPYYFDFWGRGTTLTVSS
VL: DIQMTQSPTSLSVSVGETVTITCRISENIYSNLAWYQQKEGKSPQLLVYAATKLADGVPSRFSGSGSGTQYSLKINSLQSEDFGNYYCQHFWTTPRTFGGGTKVEIK

ΔΔG (change in binding free energy against wild-type IL-1RacP-Fc) [4]: 0.3 kcal/mol
ΔΔG (change in binding free energy against wild-type IL-1RacP-Fc) [5]: 1.85 kcal/mol
ΔΔG (change in binding free energy against wild-type IL-1RacP-Fc) [6]: 2.4 kcal/mol
ΔΔG (change in binding free energy against wild-type IL-1RacP-Fc) [7]: 1.3 kcal/mol
B2: 3G5 Fab (Fab, V domains shown)
VH: B1 VH
VL: B1 VL
